Results reported in patent publication US20200308309A1 (Novartis, published 2020).

T1: Recombinant marmoset IL-18 (marmoset, UniProt U3CWC9 37-190)
T1 construct: also called marIL-18
T1 sequence: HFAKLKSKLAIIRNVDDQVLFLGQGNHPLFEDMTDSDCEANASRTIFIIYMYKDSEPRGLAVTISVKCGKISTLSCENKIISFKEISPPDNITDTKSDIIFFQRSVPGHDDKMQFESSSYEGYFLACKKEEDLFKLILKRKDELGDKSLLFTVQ

B1: mAb1 (antibody, human IgG1, lambda, L234A L235A, V domains shown)
VH: EVQLVQSGAEVKKPGSSVKVSCKASGGTFKSYAISWVRQAPGQGLEWMGNIIPMTGQTYYAQKFQGRVTITADESTSTAYMELSSLRSEDTAVYYCARAAYHPLVFDNWGQGTLVTVSS
VL: DIVLTQPPSVSGAPGQRVTISCSGSSSNIGNHYVNWYQQLPGTAPKLLIYRNNHRPSGVPDRFSGSKSGTSASLAITGLQSEDEADYYCQSWDYSGFSTVFGGGTKLTVLG
notes: Human monospecific bivalent IgG1 with lambda light chain (Vlambda1); also called IL-18 antibody; anti-IL18 IgG1
B2: mAb2 (antibody, human IgG1, kappa, V domains shown)
VH: QVQLVESGGGVVQPGRSLRLSCAASGFTFSVYGMNWVRQAPGKGLEWVAIIWYDGDNQYYADSVKGRFTISRDNSKNTLYLQMNGLRAEDTAVYYCARDLRTGPFDYWGQGTLVTVSS
VL: EIVLTQSPDFQSVTPKEKVTITCRASQSIGSSLHWYQQKPDQSPKLLIKYASQSFSGVPSRFSGSGSGTDFTLTINSLEAEDAAAYYCHQSSSLPFTFGPGTKVDIKR
notes: Human monospecific bivalent IgG1 with kappa light chain (Vkappa6); also called IL-1β antibody; anti IL-1β IgG1

Legend:
Recombinant human IL-1β = target: T2, Recombinant human IL-1β (human, UniProt P01584 117-269); test: SET simultaneous target binding, Assay B (both targets in serial dilutions in one mix), ECL read-out
T2 construct: also called huIL-1β

[1] = target: T3, Recombinant marmoset IL-1β (marmoset, UniProt U3E018 117-268); test: as above
T3 construct: also called marIL-1β

[2] = target: T3, Recombinant marmoset IL-1β; test: cell-based or functional assay
Recombinant human IL-18 = target: T4, Recombinant human IL-18 (human, UniProt Q14116 37-193); test: SET simultaneous target binding, Assay B (both targets in serial dilutions in one mix), ECL read-out
T4 construct: A biotinylated form (BTP25828) was coated on the read-out plate in the SET assay; The titrated antigen in solution is huIL-18; also called huIL-18

[3] = target: T1, Recombinant marmoset IL-18; test: as above

Binder	binding result (Recombinant human IL-1β)	binding result [1]	IL-6 prod. in dermal fibroblasts stimulated with recombinant marmoset IL-1β (18 pM), IC50, Exp. A (marmoset dermal fibroblasts by the column head) [2]	IL-6 prod. in dermal fibroblasts stimulated with recombinant marmoset IL-1β (18 pM), IC50, Exp. B (marmoset or human fibroblasts: column heads unclear) [2]	IL-6 prod. in dermal fibroblasts stimulated with recombinant marmoset IL-1β (18 pM), IC50, Exp. C (marmoset or human fibroblasts: column heads unclear) [2]	binding result (Recombinant human IL-18)	binding result [3]
B1	no binding	no binding	–	–	–	–	–
B2	–	–	95 pM	0.138 nM	0.114 nM	no binding	no binding
